Our source for the binding signal (fold weaker than dsDNA) and stoichiometry N values is PMC7337904.

For series [1], the target named is AvaII restriction endonuclease (wild type) (UniProt Q8YYB7). The experiment in a line: EMSA. To be noted: EMSA: 20 mM Tris-acetate pH 7.9, 50 mM K-acetate, 10 mM CaCl2 (replacing Mg-acetate), 1 mg/ml BSA, 37 C 30 min; 10 pmol duplex; 8% native PAGE in TBE or TB + ….
The target in series [2] is AvaII restriction endonuclease (Anabaena variabilis). Kind of series: crystal structure; three crystal forms: AvaII alone, with partially cleaved dsDNA, and with RNA/DNA heteroduplex; protein in 50 mM Tris-HCl pH 7.4, 0.2 M NaCl, 5 mM CaCl2, 1 mM DTT, 5% glycerol; sitting drops at 18°C.

Regarding “41-nt RNA/DNA heteroduplex, GGACC in RNA or DNA strand”, the binding signal (fold weaker than dsDNA) in series [1] is 100.

As to AvaII restriction endonuclease (enzyme), the stoichiometry N in series [2] amounted to 2.
